From PMC7066533 (Frontiers in Pharmacology, 2020)
Square brackets hold non-standard residues; d marks the D form. βAla = NCCC(=O)O

Assays:
[1] = target: T1, human kappa opioid receptor (human, UniProt P41145 1-380); assay: cell-based or functional assay
human mu opioid receptor = target: T2, human mu opioid receptor (human, UniProt P35372 1-400); assay: radioligand binding; displacement of 2.5 nM [3H]DAMGO (MOPr), 2 nM [3H]diprenorphine (DOPr) or 1 nM [3H]U69,593 (KOPr) from membranes of receptor-expressing HEK-293 cells; 25°C, 90 min, 100 mM Tris-HCl, 0.3% BSA; competitor 10^-12 to 10^-4 M; Ki from IC50 by Cheng-Prusoff; conditions: one partner purified
T2 construct: human mu opioid receptor, stably expressed in HEK-293 cells; membrane preparations used; also called hMOPr; MOPr; source: HEK-293 cells stably expressing hMOPr, cell membranes

[2] = target: T3, human delta opioid receptor (human, UniProt P41143 1-372); assay: as above; conditions: one partner purified
T3 construct: human delta opioid receptor, stably expressed in HEK-293 cells; membrane preparations used; also called hDOPr; DOPr; source: HEK-293 cells stably expressing hDOPr, cell membranes

[3] = target: T1, human kappa opioid receptor; assay: as above; conditions: one partner purified

## cyclo(FG[βAla][dW]) (SMILES O=C1CNC(=O)[C@H](Cc2ccccc2)NC(=O)[C@@H](Cc2c[nH]c3ccccc23)NC(=O)CCN1) [LOR17 (c[Phe-Gly-(β-Ala)-D-Trp])]
[1]
  IC50 of inhibition of forskolin-induced cAMP accumulation, HEK-293/KOR cells: 2.8 nM
  IC50 of inhibition of forskolin-induced cAMP accumulation, U87-MG cells (endogenous KOPr): 3.1 nM
  IC50 of inhibition of forskolin-induced cAMP accumulation, normal human astrocytes (endogenous KOPr): 3 nM
Human mu opioid receptor
  Ki: > 100000 nM
[2]
  Ki: > 100000 nM
[3]
  Ki: 1.19 nM
